According to article PMC12141489 (Scientific Reports, 2025):
Where no end group is shown, it is not given here. The star is where a group is joined. Biotin = O=C1N[C@H]2[C@H](CS[C@H]2CCCCC(=O)*)N1

B1: Ab1 (chimeric antibody) (antibody, V domains shown)
VH: QVQLQESGPGLVKPSQSLSLTCTVTGYSITSDYAWNWIRQFPGNKLQWMGYLSYSGVTSYNPSLKGRISITRDTSKNQFFLQLSSVTPEDTATYYCARKGTYYRYEGSYWYFDVWGAGTTVTVSS
VL: DIQMNQSPSSLSASLGDTITITCHANQNIDVWLSWYQQKPGNVPKLLIYKTSNLHTGVPSRFSGSGSGTDFTLTISSLQPEDIATYYCQQGQSYPLTFGGGTKLEIK

Columns and labels:
[1] = target: Ab2 (humanized antibody) (human); experiment: SPR
[2] = target: Ab4 (humanized antibody) (human); experiment: SPR
[3] = target: myc-tagged human TRPM4 on HEK 293 cells (Homo sapiens, UniProt Q8TD43); experiment: immunostaining of cells or tissue
Chain of myc-tagged human TRPM4 on HEK 293 cells (Q8TD43 whole entry): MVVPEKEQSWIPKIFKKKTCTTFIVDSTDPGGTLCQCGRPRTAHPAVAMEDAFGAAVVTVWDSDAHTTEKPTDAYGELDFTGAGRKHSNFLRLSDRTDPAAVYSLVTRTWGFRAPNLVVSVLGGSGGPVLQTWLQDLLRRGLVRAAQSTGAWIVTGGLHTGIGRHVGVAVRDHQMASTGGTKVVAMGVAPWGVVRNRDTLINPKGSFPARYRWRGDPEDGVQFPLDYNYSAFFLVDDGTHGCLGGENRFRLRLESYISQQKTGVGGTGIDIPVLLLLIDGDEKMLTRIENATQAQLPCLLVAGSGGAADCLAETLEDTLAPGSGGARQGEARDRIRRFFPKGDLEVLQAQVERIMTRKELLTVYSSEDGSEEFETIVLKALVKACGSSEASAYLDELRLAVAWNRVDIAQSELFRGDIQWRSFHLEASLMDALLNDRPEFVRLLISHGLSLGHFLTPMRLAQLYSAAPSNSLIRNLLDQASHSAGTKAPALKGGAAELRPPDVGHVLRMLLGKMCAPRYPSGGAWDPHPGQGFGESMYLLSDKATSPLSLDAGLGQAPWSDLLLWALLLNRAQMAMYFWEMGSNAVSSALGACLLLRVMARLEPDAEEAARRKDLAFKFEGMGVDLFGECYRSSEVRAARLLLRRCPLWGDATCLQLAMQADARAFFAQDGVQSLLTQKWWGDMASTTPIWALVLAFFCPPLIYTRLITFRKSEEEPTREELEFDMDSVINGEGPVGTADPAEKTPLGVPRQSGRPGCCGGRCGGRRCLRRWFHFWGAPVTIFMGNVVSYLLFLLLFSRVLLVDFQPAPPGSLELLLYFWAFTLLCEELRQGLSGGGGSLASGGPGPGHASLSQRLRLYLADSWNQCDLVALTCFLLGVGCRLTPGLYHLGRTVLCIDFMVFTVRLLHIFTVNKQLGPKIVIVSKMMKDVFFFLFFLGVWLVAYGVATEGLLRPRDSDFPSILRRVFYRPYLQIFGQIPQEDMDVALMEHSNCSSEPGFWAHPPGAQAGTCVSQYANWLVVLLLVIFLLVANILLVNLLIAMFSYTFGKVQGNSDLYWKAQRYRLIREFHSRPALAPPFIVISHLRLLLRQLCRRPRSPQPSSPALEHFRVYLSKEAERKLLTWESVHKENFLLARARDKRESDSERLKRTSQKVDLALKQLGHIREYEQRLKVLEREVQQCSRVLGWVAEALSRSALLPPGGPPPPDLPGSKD

| Binder | koff [1] | Kd [2] | binding result [3] |
| --- | --- | --- | --- |
| RDSDSNCSSEPGFWAHPPGAQK(Biotin) [Peptide-biotin (…{Lys(biotin)})] | 0.00166 s⁻¹ | 7 nM | – |
| B1 | – | – | binds |
